Source: the nanobody polyreactivity screen of Harvey et al. (2022)

Experiment: yeast display, Sf9 membrane polyspecificity reagent, FACS + sequencing; frameworks hold sequencing errors
Outline: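 A nanobody's polyreactivity label depends on the gate it was sorted from. Yeast display cells were stained with 10% biotinylated, detergent-solubilized Sf9 membrane reagent for 1 hour at 4 °C, enriched on streptavidin microbeads and sorted by FACS. The low and high (top ~1%) gates were set on anti-HA fluorescence for expression and streptavidin fluorescence for reagent binding.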

Sequence	polyreactivity (PSR sort gate)
QVQLVESVGGLVQAGGSLRLSCAASGFILAVYVLGWYRQAPGKERELVAAISWSGGSTYYADSLKGRFTISRDNAKNTVYFKMNRLKPEYTAVYSCNTVAKSPVKYDYWGQGTQVTVSS	high polyreactivity
QVQLVESVGGLVQAGGSLRLSCAASGFTFRKYAMGWYRQAPGKERELVAGISWSGGTTYYADSVKGRFTISRDNAKNTVYLQMNSLKPEDTAVYYCNAKRVQVFAGYSYDYWGQGTQVTVSS	high polyreactivity
QVQLVESVGGLVQAGGSLRLSCAASGFTFSPNARGSYRQAPGKERELVAAIDWSGDRTYYADSVKGRFTISRDNAKNTVYLQMNILKPEDTAVYYCKVVRRSPGDYSYYYWGQGTQVTVSS	low polyreactivity
QVQLVESVGGLVQAGGSLRLSCAASGFTFSTNAMGWYRQAPGKERELVAAISRGGSTNYADSVKGRFTISRDNAKNTVYLQMNSLKPEDTAVYYCNAYLSPDEEEYYWGQGTQVTVSS	low polyreactivity
QVQLVESVGGLVQAGGSLRLSCAASGGTFGYNAMGWYRQAPGKERELVAAIRVNGGSTYYADSVKGRFTISRDNAKNTVYLQMNSLKPEDTAVYYCAAESRVYRTSYWYGYWGQGTQVTVSS	high polyreactivity
QVQLVESVGGLVQAGGSLRLSCAASGIIFSYYAMGWYRQPPGKERELVAVISSGGGSTYYADSVKGRFTISRDNAKNTVYLQMNSLKPDDTAVYYCNADRVDRELFTFDYWGQGTQVTVSS	high polyreactivity
QVQLVESVGGLVQAGGSLRLSCAASGIIFWLSTMGWYRQAPGKERELVAAITSGGSTYYADSVKGRLTISRDNAKNTVYLQMNSLKQEDTALYYCAAVPRYRRWKYDYWGQGTQVTVSS	high polyreactivity
QVQLVESVGGLVQAGGSLRLSCAASGITFYSYDMGWYRQAPGKERELVAAITYRGGSTYYADSVKGRFTISRDNAKNTVYLQMNSLKPEDTAVYYCNADLLPADAPLWVTGGDYWGQGTQVTVSS	low polyreactivity
QVQLVESVGGLVQAGGSLRLSCAASGLIFAYYAMGWYRQAPGKERELVAAISWTGGSTYYADSVKGRFTISRDNAKNTVYLQMNSLKPEDTAVYYCNTVGKPGFYSWGQGTQVTVSS	high polyreactivity
QVQLVESVGGLVQAGGSLRLSCAASGLTFGGNAMGRYRQAPGKVRELVAAISGSGGRTYYADSVKGRFTISRDNAKNTVYLQMNSLKPEDTAVYYCNAATKRRTSDYWGQGTQVTVSS	high polyreactivity
QVQLVESVGGLVQAGGSLRLSCAASGLTFGSYAMGWYRQAPGTDRELVAGINQSGGSTYYADSVKGRFTISRDNAKNTVSFQMNSLNPEDTAVYYCNAEAWVSQDWWQWVAYVYWGQGTQVTVSS	high polyreactivity
QVQLVESVGGLVQAGGSLRLSCAASGNIFRGYTMGWYRQAPGKESELVATITWTGVSTFYADSVKGRFTISRDNAKNTVYLQMNSLKPEDTAVYYCAAYYPSHDYSGFWSDTYEYWGQGTQVTVSS	low polyreactivity
QVQLVESVGGLVQAGGSLRLSCAASGRIFDRYAMGWYRQAPGKERELVAAISSSGGSTYYADSVKGRFTISRDNAKNTVYLQMNSLKPEDTAVYYCAAPRSRSRTSRFDYWGQGTQVTVSS	high polyreactivity
QVQLVESVGGLVQAGGSLRLSCAASGRIFQYYAMGWYRQAPGKERELVAAITRSGGRTYYADSVKGRFTISRDNAKNTVYLQMNSLKPEDTAVYYCAARDWYYTMYYWGQGTQVTVSS	high polyreactivity
QVQLVESVGGLVQAGGSLRLSCAASGRIFSYNAMGWYRQAPGKERELVAAITWRGGNTYYADSVKGRFTISRDNAKNTVYLQMNSLKPEDTAVYYCNAVGYSKYYVRTGREFDYWGQGTQVTVSS	high polyreactivity
QVQLVESVGGLVQAGGSLRLSCAASGRIFYFNGMGWYRQAPGKERELVAAITISTGSTYYADSVKGRFTISRDNAKNTVYLQMNSLKPEDTAVYYCNVEFEYSGWKSFDYWGQGTQVTVSS	low polyreactivity
QVQLVESVGGLVQAGGSLRLSCAASGRTFAQNALGWYRQAPGKERELVAAIRSGGRTNYADSVKGRFTISRDNAKNTVYLQMNSLKPEDTAVYYCAAEWGYWSFYLGRAKVEYWGQGTQVTVSS	low polyreactivity
QVQLVESVGGLVQAGGSLRLSCAASGRTFAYYAMGWYRQAPGKERELVAAISYRGGTTYYADSVKGRFTISRDNSKNTVYLQMYILKQEDTAVYYCAAKVGVSWYGYWGKGTQVTVSS	high polyreactivity
QVQLVESVGGLVQAGGSLRLSCAASGRTFGRYAMGWYRQAPGKERELVAGISRSGDSTHYADSVKGRFTISRDNAKNTVSLQMNSLKPEDTAVYYCNKETPTIGARKYEYWGQGTQVTVSS	low polyreactivity
QVQLVESVGGLVQAGGSLRLSCAASGRTFHGNAMRWYRQARGKERELVAAISYSGGRTYYADSVKGRFTISRDNAKNTVYLQMNSLKPEDTAVYYCAAWGSSYSFDYWGQGTQVTVSS	high polyreactivity

Sequence	polyreactivity (PSR sort gate)
QVQLVESVGGLVQAGGSLRLSCAASGRTFNYYARGWYRQAPGKERELVAAISWSGTPTYYADSVKGRFTISRDNAKNTVYLQMNSLKPEDTAVYYCAAYLVSYPRGNYIRYDYWGQGTQVTVSS	low polyreactivity
QVQLVESVGGLVQAGGSLRLSCAASGRTFRKYAMGWYRQAQGKERELVASITYSGGSTYYADSVKGRFTISRDNAKNTVYLQMNSLKPEDTAVYYCAARLHWIRYPQTLYDYWGQGTQVTVSS	high polyreactivity
QVQLVESVGGLVQAGGSLRLSCAASGRTFSKYAMGWYRQEPGQERELVAAITSRGSSTYYADSVKGRFTISRDNANNTVYLQMNSLKPEETAVYYCNAGGYSKRTGRYRSGSDYWGQGTHVTVSS	high polyreactivity
QVQLVESVGGLVQAGGSLRLSCAASGRTFYFYAMGWYRQAPGKERELVAAITSGDTTHYADSVKGRFTISRDNAKNTVYLQMNSLKPDDTAVYYCAADKFKKISGYQRRSNYWGQGTQVTVSS	low polyreactivity
QVQLVESVGGLVQAGGSLRLSCAASGRTFYHYAMGWYRQAPGKERELVAAITWSGGSTYYADSVKGRFTISRDNAKNTVYLQMNSLKPEDTAVYYCAAAYRPWRGGYYPVGYYYWGQGTQVTVSS	high polyreactivity
QVQLVESVGGLVQAGGSLRLSCAASGRTFYRYAMGWYRPAPGKERELVAAITASGGSTYYADSVKGRFTISRDNAQNTVYLQMKSLKPEDTAVYYCAKGGKSRYSTWHGDYWGQGTQVTVSS	high polyreactivity
QVQLVESVGGLVQAGGSLRLSCAASGRTIVTNAIGWYRQAPGKERELVAAISRRTGSTYYADSVKGRFTISRDNAKNTVYLQMNSLKPEDTAVYYCAAKGYGSAPTYRHNYWGQGTQVTVSS	high polyreactivity
QVQLVESVGGLVQAGGSLRLSCAASGRTLFTNGMGWYRQAPGKESELVAAISTSGGSTHYADSVKGRFTISRDNAKNTVYLQMNSLKPEDTAVYYCAVDVLTVGQSYDHWGQGTQVTVSS	high polyreactivity
QVQLVESVGGLVQAGGSLRLSCAASGSIFDSNAMGWYRQAPGKVRELVASITSSGGSTYYADSVKGRFTISRDNAKKTVYLQMNSLKPEDTAVYYCAAKQAQRRYRQWSTSGYWGQGTQVTVSS	high polyreactivity
QVQLVESVGGLVQAGGSLRLSCAASGSIFDWNAMGWYREAPGKERELVASIDWDGGRTYYADSVKGRFTISRDNAKNTVYLQMNSLKPEDTAVYYCAATYYYDWWRGRWSPHIMDYWGQGTQVTVSS	low polyreactivity
QVQLVESVGGLVQAGGSLRLSCAASGSIFEWSAMGWYRQAPGKERELVADISSVGSTYYADSVKGRFTISRDNAKNTVYLQMNSLKPEDTAVYYCAADGTWVRSPHFYYWGQGTQVTVSS	low polyreactivity
QVQLVESVGGLVQAGGSLRLSCAASGSIFGRYVMGWYRQAPGKERELVAAITSGGTTNYADSVKGRFTISRDNAKHTVYLQMNSLKPEDTAVYSCNADYYSRIVGVRIYDYWGQGTQVTVSS	low polyreactivity
QVQLVESVGGLVQAGGSLRLSCAASGSIFGSYAMGWYRQAPGKERELVAAITYSGTSTYYADSVKGRFTISRDNAKNTVYLQMNSLKPEDTAVYYCYAVSRHRSKFDYWGQGTQVTVSS	high polyreactivity
QVQLVESVGGLVQAGGSLRLSCAASGSIFGVYAMGWYRQAPGKERELVATISRSGAITYYADSVKGRFTISRDNAKNTVYLQMNSLKPEDTAVYYCAADFFSREWGQGTQVTVSS	low polyreactivity
QVQLVESVGGLVQAGGSLRLSCAASGSIFGYYAMGWYRPAPGKERELVATITWGGGSTYADSVKGRFTISRDNAKNTVYLQMNSLKPEDTAVYYCNAGYRYTSAQVTWEYDYWGQGTQVTVSS	low polyreactivity
QVQLVESVGGLVQAGGSLRLSCAASGSIFNYYAMGWYRQAPGKERELVAAITTSGGNTYYADSVKGRFTISRDNPKNTVYLQMNSLKPEDTAVYYCAADYWASGGEYDYWGQGTQVTVSS	low polyreactivity
QVQLVESVGGLVQAGGSLRLSCAASGSIFQPYAMGWYRQAPGKERELVAAISIGDSTNYADSLKGRFTISRDNAKNTFYLQMNSLIPEDTAVYYCNTTGEYYDYWGQGTQVTVSS	low polyreactivity
QVQLVESVGGLVQAGGSLRLSCAASGSIFSAYAMGWYRQAPGKERELVASISWSGSSTYADSVKGRFTISRDNAKNTVYLQMNSLKPEDTAVYYCAAGYYSFRSAYDYWGQGTQVTVSS	high polyreactivity
QVQLVESVGGLVQAGGSLRLSCAASGSIFSWYAMGWYRQAPGNARELVAAIRRGGSTYYADSVKGRFTISRDNATNTVYLQMNSLKPEDTAVYYCADRVYTAASRGRGDYWGQGTQVTVSS	low polyreactivity
QVQLVESVGGLVQAGGSLRLSCAASGSIFVTYAMGWYRQAPGKERELVAVITWGGGSTYYADSVKGRFTISRDNAKNTVYLQMNSLIPEDTAVYYCAKDSYYYRRDVNVDYWGQGTQVTVSS	low polyreactivity
